Consider one molecule from patent publication US20190142971A1, “FORMULATION AND DELIVERY OF MODIFIED NUCLEOSIDE, NUCLEOTIDE, AND NUCLEIC ACID COMPOSITIONS” (ModernaTX, Inc., priority 2013, published 2019).

Data set [1] concerns C57BL/6. In words: Example 114: mouse EPO mRNA electroporation multi-dose, serum EPO (Tables 183, 184). The class given is in vivo, mice. The conditions noted are these: mouse EPO mRNA in PBS, IM 0.2 mg/kg per dose with EP. Here is the method:
Serum was collected from the mice at 24 hours post the first, second, third and fourth doses.

Data set [2] has as its system C57BL/6. In words: Example 115 (second): human EPO mRNA in mannitol multi-dose, serum EPO (Table 187). Type of data set: in vivo, mice. The following applies: IM 2.5 mg/kg per dose. Here is the method:
Serum was collected from the mice 24 hours post the second, fourth, sixth and eighth doses.

Where [3] appears, read: serum 24 hours post fourth dose.
Where [4] appears, read: serum 24 hours post second dose.

B1: EPO: modified mRNA encoding human erythropoietin, SEQ ID NO: 7, Cap1, fully modified with 5-methylcytosine and pseudouridine; LNP NPA-060-1 in Examples 17-22 (nucleic acid)
chain: GGGAAAUAAGAGAGAAAAGAAGAGUAAGAAGAAAUAUAAGAGCCACCAUGGGAGUGCACGAGUGUCCCGCGUGGUUGUGGUUGCUGCUGUCGCUCUUGAGCCUCCCACUGGGACUGCCUGUGCUGGGGGCACCACCCAGAUUGAUCUGCGACUCACGGGUACUUGAGAGGUACCUUCUUGAAGCCAAAGAAGCCGAAAACAUCACAACCGGAUGCGCCGAGCACUGCUCCCUCAAUGAGAACAUUACUGUACCGGAUACAAAGGUCAAUUUCUAUGCAUGGAAGAGAAUGGAAGUAGGACAGCAGGCCGUCGAAGUGUGGCAGGGGCUCGCGCUUUUGUCGGAGGCGGUGUUGCGGGGUCAGGCCCUCCUCGUCAACUCAUCACAGCCGUGGGAGCCCCUCCAACUUCAUGUCGAUAAAGCGGUGUCGGGGCUCCGCAGCUUGACGACGUUGCUUCGGGCUCUGGGCGCACAAAAGGAGGCUAUUUCGCCGCCUGACGCGGCCUCCGCGGCACCCCUCCGAACGAUCACCGCGGACACGUUUAGGAAGCUUUUUAGAGUGUACAGCAAUUUCCUCCGCGGAAAGCUGAAAUUGUAUACUGGUGAAGCGUGUAGGACAGGGGAUCGCUGAUAAGCUGCCUUCUGCGGGGCUUGCCUUCUGGCCAUGCCCUUCUUCUCUCCCUUGCACCUGUACCUCUUGGUCUUUGAAUAAAGCCUGAGUAGGAAG
modifications: Cap1, 5-methylcytosine, pseudouridine
Consider B1, for which the “First Dose EPO” value with C57BL/6 [1] (serum 24 hours post first dose) was determined as 151.9 pg/mL. Further, the “Fourth Dose EPO” value with C57BL/6 [1] (setting [3]) was determined as 258.1 pg/mL; in the data set with C57BL/6 [2] (setting [3]), 44.3 pg/mL. The “Second Dose EPO” value in the data set on C57BL/6 [1] (setting [4]) was 357.8 pg/mL; with C57BL/6 [2] (setting [4]), 43.5 pg/mL. Besides, the “Third Dose EPO” value with C57BL/6 [1] (serum 24 hours post third dose) is 898.5 pg/mL. Besides, the “Eighth Dose EPO” value in the data set with C57BL/6 [2] (serum 24 hours post eighth dose) amounted to 7.9 pg/mL. Besides, the “Sixth Dose EPO” value with C57BL/6 [2] (serum 24 hours post sixth dose) is 46.3 pg/mL.
